Test results as given in patent publication US20100169988A1 (published 2010).

Target: T1, APP-TAP-AICD (human, UniProt P05067-4 18-695)
T1 construct: Bait purified from brain homogenate of hemizygous transgenic mice via streptavidin; full-length APP and cleaved C-terminal stubs are isolated; also called TAP-tagged full-length human APP
Assay: streptavidin purification of APP-TAP-AICD from brain homogenate; iTRAQ 116/114, transgenic mouse 75 vs control mouse 72; MALDI-TOF/TOF;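 note: relative protein abundance in the transgenic versus control pull-down, limited to proteins with high quality scores and above-average enrichment, without full normalization across the whole measurement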

iTRAQ ratio: 3.38
B1: Guanine nucleotide-binding protein G(o); alpha subunit 1 (other, mouse, UniProt P18872 2-354, looked up)
chain: GCTLSAEERAALERSKAIEKNLKEDGISAAKDVKLLLLGAGESGKSTIVKQMKIIHEDGFSGEDVKQYKPVVYSNTIQSLAAIVRAMDTLGVEYGDKERKTDSKMVCDVVSRMEDTEPFSAELLSAMMRLWGDSGIQECFNRSREYQLNDSAKYYLDSLDRIGAGDYQPTEQDILRTRVKTTGIVETHFTFKNLHFRLFDVGGQRSERKKWIHCFEDVTAIIFCVALSGYDQVLHEDETTNRMHESLMLFDSICNNKFFIDTSIILFLNKKDLFGEKIKKSPLTICFPEYPGSNTYEDAAAYIQTQFESKNRSPNKEIYCHMTCATDTNNIQVVFDAVTDIIIANNLRGCGLY
notes: also called GNAO1_MOUSE
